Tests used:
[1] = biological target: T1, human CD200R1 expressed on cells (Jurkat-CD200R1, U937-CD200R1, HH cells) (human, UniProt Q8TD46 25-348); assay: flow cytometry, Jurkat-CD200R cells
T1 construct: whole, on cells; also called HH (CRL-2105); cell surface-expressed CD200R1
T1 sequence (looked up): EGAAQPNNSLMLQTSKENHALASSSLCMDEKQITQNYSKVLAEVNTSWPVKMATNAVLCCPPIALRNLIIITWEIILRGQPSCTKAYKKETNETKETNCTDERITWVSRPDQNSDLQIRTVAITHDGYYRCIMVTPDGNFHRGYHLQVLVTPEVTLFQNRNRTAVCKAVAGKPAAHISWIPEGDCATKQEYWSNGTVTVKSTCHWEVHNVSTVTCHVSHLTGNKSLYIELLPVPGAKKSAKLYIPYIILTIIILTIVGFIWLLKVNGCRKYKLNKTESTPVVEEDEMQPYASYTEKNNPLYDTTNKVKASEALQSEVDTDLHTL
Method: Two additional wells were treated with 10 μl of mouse IgG1K (BD, #555751) and 5 μl of commercial CD200R1 antibody (Biolegend, #329308) to determine CD200R1 expression on the cell line surface for cell quality control.
The antibodies were serially diluted 10-fold from a maximum concentration of 100 nM to 10 nM, 1 nM, […], and were added to the pre-seeded cells. After reaction for 1 hour at 4° C., the cells were treated with Alexa-647 goat anti-human IgG (H+L) cross-adsorbed secondary antibody (Invitrogen, #A21445) and incubated for an additional 30 minutes at 4° C. After washing twice with FACS buffer, flow cytometry was performed using a Novocyte Flow cytometer (Agilent). Using GraphPad Prism software, the EC₅₀ was determined using a nonlinear graph model of log (agonist) vs. response-variable slope, as shown in Table 32.

[2] = biological target: T2, human CD200R1 with dual His-tags (human, UniProt Q8TD46 25-265); assay: SPR (Biacore CM5), His-tagged antigen captured by anti-histidine antibody, antibody as analyte, 1:1 Langmuir fit
T2 construct: Captured on the SPR chip by an anti-histidine antibody; also called hCD200R1-his; not shown: dual His-tags
T2 sequence (looked up): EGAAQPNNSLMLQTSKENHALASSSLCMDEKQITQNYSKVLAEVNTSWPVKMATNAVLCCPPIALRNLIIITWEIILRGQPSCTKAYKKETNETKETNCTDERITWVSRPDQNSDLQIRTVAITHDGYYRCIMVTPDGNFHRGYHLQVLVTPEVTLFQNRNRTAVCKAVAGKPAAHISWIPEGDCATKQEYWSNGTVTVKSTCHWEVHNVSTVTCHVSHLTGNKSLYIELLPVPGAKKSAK
Method: (§1) For the experiment, 30 μg/mL of an anti-histidine antibody was conjugated to a CM5 biacore chip via an amine bond while allowing to flow at 10 μl/min (10,000 RU). Then, 0.25 μg/mL of human or cynomolgus CD200R1 with dual His-tags was captured onto the completed chip for 60 seconds, and the binding ability of each antibody was analyzed. All experiments were performed by association of antibodies for 120 seconds and dissociation of antibodies for 600 seconds. The resulting graphs were fitted using a 1:1 Langmuir binding kinetic model (FIG. 16), and the kinetics of each antibody were calculated.

[3] = biological target: T3, cynomolgus CD200R1 with dual His-tags (cynomolgus, UniProt G7NZT0 25-266); assay: as above
T3 construct: Captured on the SPR chip by an anti-histidine antibody; also called CCD200R1-his; cCD200R1-his; not shown: dual His-tags
T3 sequence: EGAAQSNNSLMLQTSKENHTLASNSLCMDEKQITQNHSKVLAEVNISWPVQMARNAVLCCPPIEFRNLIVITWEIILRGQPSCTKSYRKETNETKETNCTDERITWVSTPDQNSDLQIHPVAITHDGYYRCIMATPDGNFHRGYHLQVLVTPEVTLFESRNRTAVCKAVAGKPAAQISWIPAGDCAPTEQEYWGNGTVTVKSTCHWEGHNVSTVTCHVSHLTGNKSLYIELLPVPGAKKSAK
Method: as §1

[4] = biological target: T1, human CD200R1 expressed on cells …; assay: flow cytometry on Jurkat-CD200R1 and HH cells, 500 nM antibody in IgG1 form
Method: The cells were washed by centrifugation at 130 g for 5 minutes. The cells were seeded onto 96-well round-bottom plates (SPL, #34296) at a density of 1×10⁵ cells/well in Flow cytometry staining buffer (Invitrogen, #00-4222-26) or FACS buffer. […] After incubation for 1 hour at 4° C., the cells were treated with Alexa-647 Goat anti-human IgG (H+L) cross-adsorbed secondary antibody (Invitrogen, #A21445) and incubated at 4° C. for an additional 30 minutes. After washing twice with FACS buffer, flow cytometry analysis was performed using a Novocyte Flow cytometer (Agilent).

[5] = biological target: T4, mouse CD200R1 protein (R&D systems, 2554-CD) (mouse, UniProt Q9ES57 26-238, limits assumed); assay: ELISA, plate-bound mouse CD200R1 (2 ug/mL), IgG 0.0192-300 nM, OD 450 nm; panel 'mouse CD200R1'
T4 construct: Bought; construct not described
T4 sequence (looked up): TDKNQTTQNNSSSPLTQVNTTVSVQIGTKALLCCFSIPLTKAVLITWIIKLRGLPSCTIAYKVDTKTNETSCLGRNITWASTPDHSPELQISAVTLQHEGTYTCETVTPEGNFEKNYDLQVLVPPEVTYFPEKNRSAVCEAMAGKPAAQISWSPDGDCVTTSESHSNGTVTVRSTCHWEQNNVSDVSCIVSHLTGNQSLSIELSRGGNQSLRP
Method: 96-well plates were coated with human CD200R1 (R&D systems, 3414-CD) and mouse CD200R1 protein (R&D systems, 2554-CD) at a concentration of 2 μg/mL at 4° C. for 16 hours and then were blocked with 3% skim milk.
Color was developed with a TMB substrate solution (Thermo Scientific, 34029, 1-Step™ TMB-ELISA Ultra Substrate Solution). The color reaction was stopped with stop solution (Invitrogen, SS04, ELISA Stop Solution). The absorbance was measured at an optical density of 450 nm.

[6] = biological target: T5, human CD200RLa (Sino Biological, 11620-H08H) recombinant protein (human, UniProt Q6Q8B3 24-239); assay: ELISA, plate-bound human CD200RLa (2 ug/mL), antibody 0.0192-300 nM, O.D 450 nm; panel 'recombinant human CD200RLa'
T5 construct: Bought; construct not described
T5 sequence (looked up): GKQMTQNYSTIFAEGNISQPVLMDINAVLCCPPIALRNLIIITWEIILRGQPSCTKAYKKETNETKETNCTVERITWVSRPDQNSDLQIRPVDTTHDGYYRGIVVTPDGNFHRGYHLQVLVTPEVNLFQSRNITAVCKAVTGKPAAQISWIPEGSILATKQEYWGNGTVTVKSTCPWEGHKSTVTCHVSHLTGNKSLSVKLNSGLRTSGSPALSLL
Method: 96-well plates were coated with human CD200RLa (Sino Biological, 11620-H08H) and monkey CD200RLa (Sino Biological, 11576-C02H) recombinant proteins at a concentration of 2 μg/mL at 4° C. for 16 hours, and blocked with 3% skim milk for 1 hour. […] Color was developed with a TMB substrate solution (Thermo Scientific, 34029, 1-Step™ Ultra TMB-ELISA Substrate Solution). The color reaction was stopped with stop solution (Invitrogen, SS04, ELISA Stop Solution).

[7] = biological target: T6, human CD200R1 recombinant protein (construct not stated) (human, UniProt Q8TD46 27-266, limits assumed); assay: hybridoma ELISA on human CD200R1
T6 sequence (looked up): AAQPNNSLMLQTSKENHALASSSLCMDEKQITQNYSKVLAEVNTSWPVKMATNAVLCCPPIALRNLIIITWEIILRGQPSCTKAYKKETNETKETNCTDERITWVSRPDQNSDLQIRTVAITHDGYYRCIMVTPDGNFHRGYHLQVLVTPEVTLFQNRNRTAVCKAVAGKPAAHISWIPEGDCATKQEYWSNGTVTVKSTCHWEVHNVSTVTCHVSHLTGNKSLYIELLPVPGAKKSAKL

B1: P001009v2 (antibody, V domains shown)
VH: EVQLLESGGGLVQPGGSLRLSCAASGFTFSSYDMSWVRQAPGKGLEWVSWISHGGGSIYYADSVKGRFTISRDNSKNTLYLQMNSLRAEDTAVYYCARDAPAYSAPLFDYWGQGTLVTVSS
VL: QSVLTQPPSASGTPGQRVTISCSGSSSNIGNNAVNWYQQLPGTAPKLLIYYDKNRPSGVPDRFSGSKSGTSASLAISGLRSEDEADYYCAAWDRSLSGYVFGGGTKLTVL
notes: P001009 with LC S52K and D93R (Kabat); also called P019001v2
Binder B1 has an EC50 [1] of 3.08 nM, a Kd [2] of 0.87 nM and a koff [2] of 0.00654 s⁻¹. The kon [2] was 7.52e+06 M⁻¹ s⁻¹, the Kd [3] was 0.0286 nM and the koff [3] was 8.08e-05 s⁻¹. The kon [3] was 2.82e+06 M⁻¹ s⁻¹.

B2: P001009v3 (antibody, V domains shown)
VH: EVQLLESGGGLVQPGGSLRLSCAASGFTFSSYDMSWVRQAPGKGLEWVSWISHGGGSIYYADSVKGRFTISRDNSKNTLYLQMNSLRAEDTAVYYCARDAPAYSAPLFDYWGQGTLVTVSS
VL: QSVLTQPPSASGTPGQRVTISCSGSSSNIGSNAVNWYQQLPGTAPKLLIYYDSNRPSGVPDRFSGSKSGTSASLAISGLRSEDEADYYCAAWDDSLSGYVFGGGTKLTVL
notes: P001009 with LC N30S (Kabat); also called P019001v3
Binder B2 has an EC50 [1] of 0.33 nM, a Kd [2] of 0.109 nM and a koff [2] of 0.000452 s⁻¹. The kon [2] was 4.16e+06 M⁻¹ s⁻¹, the Kd [3] was 1.15 nM and the koff [3] was 7.09 s⁻¹. For the same binder, the kon [3] was 6.14e+09 M⁻¹ s⁻¹.

B3: P001006 (IgG) (antibody, V domains shown)
VH: EVQLLESGGGLVQPGGSLRLSCAASGFTFSDYAMSWVRQAPGKGLEWVSGISYGNGNTYYADSVKGRFTISRDNSKNTLYLQMNSLRAEDTAVYYCAKDPWQTAINDFDYWGQGTLVTVSS
VL: QSVLTQPPSASGTPGQRVTISCTGSSSNIGNNSVNWYQQLPGTAPKLLIYTNSHRPSEVPDRFSGSKSGTSASLAISGLRSEDEADYYCGTWDSSLSGYVFGGGTKLTVL
For B3, the “MFI normalized to P001017 (chimeric OX108), %” value [4] was greater than 50%, the binding result [5] was “no binding (tested: 300 nM)” and the binding result [6] was “no binding (tested: 300 nM)”.

B4: 6A8 (hybridoma clone) (antibody, V domains shown)
VH: QVQLQQPGAELVKPGAPVKLSCKASGYTFTSYWMNWVKQRPGRGLEWIGRIDPSDSETHYNQKFKDKATLTVDKSSSTAYIQLSSLTSEDSAVYYCARSGGWLPGFAYWGQGTLVTVSA
VL: ENVLTQSPAIMSASPGEKVTMTCSASSSLSYMLWYQQKSSTSPKLWIYDTSKLASGVPGRFSGSGSGNSYSLTISSMEAEDVGTYYCFQGSGNPLMYTFGGGTKLEIK
With B4 the “ELISA O.D.” value [7] was no less than 1.5 O.D.

B5: 1F1 (hybridoma clone) (antibody, V domains shown)
VH: QVQLQQPGAEFVKPGAPVKLSCKASGYTFTSYWMNWVKQRPGRGLEWIGRIDPADSEIHYNQKFKDKATLTVDKSSSTAYIQFSSLTSEDSAVYYCARSGGWLPGFAYWGQGTLVTVSA
VL: ENVLTQSPAIMSASPGEKVTMTCSASSSLIYMHWYQQKSSTSPKLWIYDTSKLASGVPGRFSGSGSGNSYSLTINSMEAEDVATYYCFQGSGYPLMYTFGGGTKLEIK
B5 was tested, and the “ELISA O.D.” value [7] was no less than 1.5 O.D.

B6: 3G4 (hybridoma clone) (antibody, V domains shown)
VH: QVQLQQPGAELVKPGAPVKLSCKASGFTLTSYWMNWVKQRPGRGLEWIGRIDPSDSETHYNQKFKDKATLTVDKSSSTAYIQLTSLTSEDSAVYYCARSGGWLPGFAYWGQGTLVTVSA
VL: ENVLTQSPAIMSASPGEKVTMTCSARSSVSYMHWYQQKSRTSPKLWIYDTSKLASGVPGRFSGSGSGNSYSLTISSMEAEDVATYYCFQGSGDPLMYTFGGGTKLEIK
In the case of B6, the “ELISA O.D.” value [7] is reported as no less than 1.5 O.D.

B7: 5E9 (hybridoma clone) (antibody, V domains shown)
VH: QVQLQQSGAELARPGASVKLSCKASGYTFTSYWMQWVKQRPGQGLEWIGAIYPGDGDTRYTQKFKGKATLTADKSSSTAYMQLRSLASEDSAVFYCARGGVTTLVPYFFDYWGQGATLTVSS
VL: DVLMTQTPLSLPVSLGDQASISCRSSQSIVHSNGNTYLEWYLQKPGQSPKLLIYKVSNRFSGVPDRFSGSGSGTDFTLKISRVEAEDLGVYYCFQGSHVPPTFGGGTKLEIK
B7 was tested, and the “ELISA O.D.” value [7] was no less than 1.5 O.D.

B8: 6C3 (hybridoma clone) (antibody, V domains shown)
VH: QVQLQQPGAELVRPGASVKLSCKASAYTFTSYWMNWVKQRPEQGLEWIGRIDPYDSETHYNQKFKDKAILTVDKSSSTAYMQLSSLTSEDSAVYYCARVDGNHLFDYWGQGTTLTVSS
VL: DIKMTQSPSSMYASLGERVTITCKASQDINSYLSWFQQKPGKSPKTLIYRANRLVDGVPSRFSGSGSGQDYSLTISSLEYEDMGIYYCLQYDEFPYTFGGGTKLEIK
With B8 the “ELISA O.D.” value [7] was no less than 1.5 O.D.

Reference: US20260263521A1 (AIMED BIO, published 2026)
